# Data from the supplement of paper PMC10567573.
# B1: PPEF2 (parent)
# chain: FIPSSHNDRDFLTRIFTEDRFAQD
# Variants of: B1
# Assay: protein stability index of a GFP-peptide fusion (GPS, HEK-293T) (PSI 1-6); higher = more stable
# Details: c terminus: a fixed tail appended
# 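Also: lentivirally expressed fusions sorted by FACS into six bins by GFP to DsRed ratio, PSI derived from sequencing read proportions per bin multiplied by bin number.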
row,Variant,protein stability index
1,FKPSSHNDRDFLTRIFTEDRFAQD [I2K],2.92
2,FYPSSHNDRDFLTRIFTEDRFAQD [I2Y],3.38
3,FQPSSHNDRDFLTRIFTEDRFAQD [I2Q],1.5
4,FEPSSHNDRDFLTRIFTEDRFAQD [I2E],3.85
5,FNPSSHNDRDFLTRIFTEDRFAQD [I2N],1.96
6,FVPSSHNDRDFLTRIFTEDRFAQD [I2V],2.73
7,FMPSSHNDRDFLTRIFTEDRFAQD [I2M],2.07
8,FRPSSHNDRDFLTRIFTEDRFAQD [I2R],3.12
9,FIPSHHNDRDFLTRIFTEDRFAQD [S5H],1.89
10,FIPSPHNDRDFLTRIFTEDRFAQD [S5P],2.29
11,FIPSGHNDRDFLTRIFTEDRFAQD [S5G],1.74
12,FIPSLHNDRDFLTRIFTEDRFAQD [S5L],1.41
13,FIPSKHNDRDFLTRIFTEDRFAQD [S5K],1.67
14,FIPSAHNDRDFLTRIFTEDRFAQD [S5A],2.53
15,FIPSCHNDRDFLTRIFTEDRFAQD [S5C],1.9
16,FIPSTHNDRDFLTRIFTEDRFAQD [S5T],2.17
17,FIPSWHNDRDFLTRIFTEDRFAQD [S5W],1.58
18,FIPSDHNDRDFLTRIFTEDRFAQD [S5D],2.67
19,FIPSMHNDRDFLTRIFTEDRFAQD [S5M],1.44
20,FIPSEHNDRDFLTRIFTEDRFAQD [S5E],2.4
21,FIPSSHNDIDFLTRIFTEDRFAQD [R9I],1.76
22,FIPSSHNDYDFLTRIFTEDRFAQD [R9Y],1.89
23,FIPSSHNDHDFLTRIFTEDRFAQD [R9H],1.54
24,FIPSSHNDWDFLTRIFTEDRFAQD [R9W],2.3

row,Variant,protein stability index
1,FIPSSHNDNDFLTRIFTEDRFAQD [R9N],1.76
2,FIPSSHNDSDFLTRIFTEDRFAQD [R9S],1.98
3,FIPLSHNDRDFLTRIFTEDRFAQD [S4L],2.02
4,FIPVSHNDRDFLTRIFTEDRFAQD [S4V],2.29
5,FIPYSHNDRDFLTRIFTEDRFAQD [S4Y],1.94
6,FIPISHNDRDFLTRIFTEDRFAQD [S4I],3.25
7,FIPKSHNDRDFLTRIFTEDRFAQD [S4K],2.29
8,FIPDSHNDRDFLTRIFTEDRFAQD [S4D],2.11
9,FIPRSHNDRDFLTRIFTEDRFAQD [S4R],2.14
10,FIPGSHNDRDFLTRIFTEDRFAQD [S4G],2.53
11,FIPNSHNDRDFLTRIFTEDRFAQD [S4N],3.06
12,FIPPSHNDRDFLTRIFTEDRFAQD [S4P],1.8
13,FIPQSHNDRDFLTRIFTEDRFAQD [S4Q],1.89
14,FIPHSHNDRDFLTRIFTEDRFAQD [S4H],1.76
15,FIPTSHNDRDFLTRIFTEDRFAQD [S4T],2.57
16,FIPSSHNDRDFLTRIFTEDFFAQD [R20F],2.24
17,FIPSSHNDRDFLTRIFTEDCFAQD [R20C],2.1
18,FIPSSHNDRDFLTRIFTEDLFAQD [R20L],2.05
19,FIPSSHNDRDFLTRIFTEDYFAQD [R20Y],2.37
20,FIPSSHNDRDFLTIIFTEDRFAQD [R14I],2.61
21,FIPSSHNDRDFLTNIFTEDRFAQD [R14N],2.12
22,FIPSSHNDRDFLTMIFTEDRFAQD [R14M],2.55
23,FIPSSHNDRDFLTSIFTEDRFAQD [R14S],3.48
24,FIPSSHNDRDFLTWIFTEDRFAQD [R14W],2.5

row,Variant,protein stability index
1,FIPSSHNDRDFLTPIFTEDRFAQD [R14P],2.81
2,FIPSSHNDRDFLTEIFTEDRFAQD [R14E],2.34
3,WIPSSHNDRDFLTRIFTEDRFAQD [F1W],3.04
4,RIPSSHNDRDFLTRIFTEDRFAQD [F1R],3.75
5,DIPSSHNDRDFLTRIFTEDRFAQD [F1D],3.89
6,AIPSSHNDRDFLTRIFTEDRFAQD [F1A],4.31
7,PIPSSHNDRDFLTRIFTEDRFAQD [F1P],4.18
8,QIPSSHNDRDFLTRIFTEDRFAQD [F1Q],4.19
9,CIPSSHNDRDFLTRIFTEDRFAQD [F1C],4.21
10,SIPSSHNDRDFLTRIFTEDRFAQD [F1S],4.4
11,KIPSSHNDRDFLTRIFTEDRFAQD [F1K],3.85
12,MIPSSHNDRDFLTRIFTEDRFAQD [F1M],4.06
13,TIPSSHNDRDFLTRIFTEDRFAQD [F1T],4.21
14,FIPSSHYDRDFLTRIFTEDRFAQD [N7Y],2.95
15,FIPSSHPDRDFLTRIFTEDRFAQD [N7P],1.92
16,FIPSSHHDRDFLTRIFTEDRFAQD [N7H],3.59
17,FIPSSHEDRDFLTRIFTEDRFAQD [N7E],2.39
18,FIPSSHKDRDFLTRIFTEDRFAQD [N7K],2.99
19,FIPSSHVDRDFLTRIFTEDRFAQD [N7V],1.8
20,FIPSSHCDRDFLTRIFTEDRFAQD [N7C],2.17
21,FIPSSHNDRCFLTRIFTEDRFAQD [D10C],2.41
22,FIPSSHNDRQFLTRIFTEDRFAQD [D10Q],2.77
23,FIPSSHNDREFLTRIFTEDRFAQD [D10E],1.96
24,FIPSSHNDRRFLTRIFTEDRFAQD [D10R],2.67

row,Variant,protein stability index
1,FIPSSHNDRYFLTRIFTEDRFAQD [D10Y],2.39
2,FIPSSHNDRVFLTRIFTEDRFAQD [D10V],3.75
3,FIPSSHNDRWFLTRIFTEDRFAQD [D10W],2.6
4,FIPSSHNDRNFLTRIFTEDRFAQD [D10N],2.96
5,FIPSSHNDRDFLTRIFTEDRFAMD [Q23M],2.09
6,FIPSSHNDRDFLTRIFTEDRFAVD [Q23V],2.15
7,FIPSSHNDRDFLTRIFTEDRFAFD [Q23F],2.44
8,FIPSSHNDRDFLTRIFTEDRFARD [Q23R],3.08
9,FIPSSHNDRDFLTRIFTEDRFAWD [Q23W],2.55
10,FIPSSHNDRDFLTRIFTEDRFAYD [Q23Y],2.84
11,FIPSSHNDRDFLTRIFTEDRFAGD [Q23G],1.89
12,FIPSSHNDRDFLTRIFTEDRFAID [Q23I],1.99
13,FIPSSHNDRDFLTRIFTEDRFAKD [Q23K],2.33
14,FIPSSHNDRDGLTRIFTEDRFAQD [F11G],2.21
15,FIPSSHNDRDCLTRIFTEDRFAQD [F11C],2.8
16,FIPSSHNDRDELTRIFTEDRFAQD [F11E],2.33
17,FIPSSHNDRDRLTRIFTEDRFAQD [F11R],1.99
18,FIPSSHNDRDQLTRIFTEDRFAQD [F11Q],2
19,FIPSSHNDRDFLTRIFTEDRWAQD [F21W],2.09
20,FIPSSHNDRDFLTRIFTEDRGAQD [F21G],1.92
21,FIPSSHNDRDFLTRIFTEDRDAQD [F21D],2.52
22,FIPSSHNDRDFLTRIFTEDRSAQD [F21S],1.65
